Experimental data as given in the supplement of paper PMC12764529.
± gives the half width of the 95% confidence interval.

experiment: folding stability dG unfold from trypsin proteolysis; higher = more stable
Procedure, shortened: (§1)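 Unfolding free energy was derived, per protease or combined, against a sequence-predicted unfolded-state K50 and a shared folded-state K50, starting from K50 inferred by Bayesian fitting of sequencing counts. Digestion with trypsin and chymotrypsin was carried out on designed mini-proteins under 80 residues without cysteine in a PA-tagged cDNA display construct. Only designs with AlphaFold2 dimer inter-PAE above 15 were kept.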

Row | Sequence | folding stability dG unfold [kcal/mol]
1 | SAGGFKIEYTGNYYTIELPGLKIMVNPNMGMMRIKLPGNGKKITIPVPMNNWEDMLDAVKEILKELGSAGGS [r8_447_TrROS] | 3.17 ± 0.17
2 | SAGGMVIPPEATLTGSTTSWVTTSDGRKLLVTTPVYRFPGNTTVVVSTVTDPTSAASTVTVSTEPALSAGGS [r16_370_JUSTAS] | 0.498 ± 0.069
3 | SAGGSAGGSAIKPGEKIKILVLVKDENGKEYLVKMEIEKLPDGKIKIKKVEIMSLEELKKLSAGGSAGGSAG [r3_212_TrROS_Hall] | 1.84 ± 0.043
4 | GMAPKTYTKEVEIKDSSGKPIKYKVTVTETALPDGSSESTITLTDPNSSKTTTINLSSPGKGLTPDDKILLS [r1_14_JUSTAS] | 0.562 ± 0.019
5 | SAFKILPDGTILIDIGEDEAKKLSIEEIEALVKEIEKLLPKDYKVEIHIIPKKPIPKPPLIPGKDNLIGSAG [r14_312_TrMRF] | 1.94 ± 0.063
6 | SAGGKEKYKVIEIKVKPEDVTAEELQAELEKKGYEIYVDGKKIKPGESVEDLLAKNPNATLTIVVKESAGGS [r8_38_TrROS_Hall] | 0.925 ± 0.17
7 | SAGGPEVKILSKSYNPEKNTVTYNLEVYYGGKKYGALAEIHYDPKTGKYTITVYYPDKPDYKETLTFNSAGG [r13_615_TrMRF] | 1.91 ± 0.077
8 | SAGGMPPENPAVVKVLAQKQKFEDLVKELKEKGIEAKLEKIEVVPETGKVTVTIKLPDGKEIVITIESAGGS [r8_277_JUSTAS] | 1.62 ± 0.11
9 | SAGGSAATVEVTRLPGGRYVVRLRNPDTDEEIVVELPVDASTTPEDVLEAARALVAELEEEGYTIESAGGSA [r15_1022_TrMRF] | 2.92 ± 0.07
10 | SLKNGDPIMVKIEIEQYNPKNGKPQEQKHSIMIPPGDPVTINIPGLPPGYKVRVEIYPMDGKPIGEHTIPSA [r9_478_TrROS] | 1.73 ± 0.12
11 | SAGGSGPSAPRTLTLDLPELPPGVKITVTVDFPGGRTFTGGVTERTATVDLPVPDGLEVESVTVQLESAGGS [r16_179_JUSTAS] | 0.00568 ± 0.1
12 | SAGGWIPPGAEIEIDEIGPDGTITVKIKYPDGKPMSITMRRQRDKDGKRYIELYFPGSGRPIASFPIKSAGG [r13_527_TrROS] | 1.84 ± 0.03
13 | SAMPIDITVEGVERPPDSVVVHLRLDPSVPSDLAVTVKVRGADGTVLEVPAEDRTATLRVPSSDVVVDLSAG [r14_350_JUSTAS] | 0.387 ± 0.11
14 | SAGGSAGGSSPVRTLTIPTENLTPEEILELVKNNPVDSVVLNADSEEEEKLKEELKKAGIKVLSAGGSAGGS [r12_610_JUSTAS] | -0.501 ± 0.071
15 | SAGGSAGGDPRPVRVEVLRLEYDPPSGLLRALVRNPENDLLVFATLRIFPDPAGAELRVESVVFSAGGSAGG [r6_70_TrMRF] | 1.39 ± 0.071
16 | SAGEREELLERAKELARKLAEELGVEVEVTVTVEERDDSVTITVTVTVRNEDGSTHTFTFTFTLKKEDLSAG [r5_609_TrROS_Hall] | 3.83 ± 0.14

Row | Sequence | folding stability dG unfold [kcal/mol]
17 | SAKPPVIVIRIEKKEDGTYRVTIEVDGKEIEIEVPEGTSLEEILKKLAEELGVEVEVVEVKDGYLVIKPSAG [r14_404_TrROS_Hall] | 2.82 ± 0.2
18 | SAGGIELTIPLPNGMLIKIKIESIHIQPVPVWRKKKDPDGKPKDWEPQPFTFSISIRFSIEIYDPDDLSAGG [r13_848_TrROS] | 3.47 ± 0.2
19 | SAGGSAGGSAGGWYVQIKFPNNPIYISAEEIRDNPEVLKELEDEGYPIKNIEVMKPGEGSAGGSAGGSAGGS [r10_396_TrROS] | 0.526 ± 0.082
20 | SAGTADELVERAKEFARELAEEFGYKVDVDVKVQPTPDYYTIKVTVTFRNPGGMTWRFPFTITIPKEQFSAG [r5_609_TrROS] | 3.45 ± 0.15
21 | SAGGSAGGSAGMEPVYLLVKRTNPATGGREEALLAVPAEDLDAVREALEALPGVEEIEEISAGGSAGGSAGG [r17_438_TrMRF] | 0.283 ± 0.05
22 | SAGGSAEEDEVVTIRAVLENGEVRELEVKLPEGTRIYIPGTGEVREVPFGDEVPVPANSDLLVEPVSAGGSA [r15_152_TrMRF] | -0.106 ± 0.13
23 | SAGGSAISEEEPFVKIKVELESEPKEIILPKSDIVKIEVDEPDKIATIYLPSTGKFFPFKVLSVENSAGGSA [r15_495_TrMRF] | 0.332 ± 0.079
24 | SAGGSAGGSAGNWRWIMIPIKVPPGLEAGEEIEIKIPNGVEVWYHYNEPGTIWMMIRVPDSAGGSAGGSAGG [r11_362_TrROS] | 2.69 ± 0.069
25 | SARTLTITVPPGYRARVVVTLENGEPLELEVPPSESVTLTIPPGVPALVRVEVFYPDGSVGEFEVEVDDSAG [r14_568_TrMRF] | 4.65 ± 0.25
26 | SAGGSELKPGDLVVRIEIKVEVEEVRVNENGEVEVKLRVEIRIEVRPLPPPPEPSEEELLNPDGEESAGGSA [r2_495_TrROS_Hall] | 2.74 ± 0.27
27 | SAGMGVSTFPVEIVTKPDDITEEELKKRAIERLKKLFPGVKLKEVKFDIPVRELPGDEIVITMNITVNVSAG [r14_145_JUSTAS] | 1.57 ± 0.068
28 | SAGGSAGGSAGGDNWKIGIDIIPIRFTFEMTMKDGGKPRPMRMEFEVTIIVIKITPPGDSAGGSAGGSAGGS [r10_118_TrROS] | 3.5 ± 0.1
29 | SAGGSAGGSASIEITVKTKEEAKALAEALAKAGLVEVETLPDGSVKITVKPVKVEEVLKPPESAGGSAGGSA [r18_126_TrROS_Hall] | 1.66 ± 0.096
30 | SAGGSAGGSAERTLTITVPAAPGDIPALVAPDGSVYGIGDFEVIPGEGRVELKVTLVKPGDASAGGSAGGSA [r18_116_TrMRF] | -0.879 ± 0.1
31 | SAGGSAGGSMTTSTEVVELSGGSSLTVEREYTVEEVKVDDKWETVTHEVVTTPDSTTVREIKPSAGGSAGGS [r12_128_JUSTAS] | 0.233 ± 0.063

experiment: folding stability dG unfold from chymotrypsin proteolysis; higher = more stable
Procedure, shortened: as §1

Row | Sequence | folding stability dG unfold [kcal/mol]
32 | SAGGFKIEYTGNYYTIELPGLKIMVNPNMGMMRIKLPGNGKKITIPVPMNNWEDMLDAVKEILKELGSAGGS [r8_447_TrROS] | 2.18 ± 0.099
33 | SAGGMVIPPEATLTGSTTSWVTTSDGRKLLVTTPVYRFPGNTTVVVSTVTDPTSAASTVTVSTEPALSAGGS [r16_370_JUSTAS] | 0.107 ± 0.12
34 | SAGGSAGGSAIKPGEKIKILVLVKDENGKEYLVKMEIEKLPDGKIKIKKVEIMSLEELKKLSAGGSAGGSAG [r3_212_TrROS_Hall] | 2.38 ± 0.029
35 | GMAPKTYTKEVEIKDSSGKPIKYKVTVTETALPDGSSESTITLTDPNSSKTTTINLSSPGKGLTPDDKILLS [r1_14_JUSTAS] | 1.09 ± 0.087
36 | SAFKILPDGTILIDIGEDEAKKLSIEEIEALVKEIEKLLPKDYKVEIHIIPKKPIPKPPLIPGKDNLIGSAG [r14_312_TrMRF] | 1.97 ± 0.041
37 | SAGGKEKYKVIEIKVKPEDVTAEELQAELEKKGYEIYVDGKKIKPGESVEDLLAKNPNATLTIVVKESAGGS [r8_38_TrROS_Hall] | 1.94 ± 0.11
38 | SAGGPEVKILSKSYNPEKNTVTYNLEVYYGGKKYGALAEIHYDPKTGKYTITVYYPDKPDYKETLTFNSAGG [r13_615_TrMRF] | 3.03 ± 0.079
39 | SAGGMPPENPAVVKVLAQKQKFEDLVKELKEKGIEAKLEKIEVVPETGKVTVTIKLPDGKEIVITIESAGGS [r8_277_JUSTAS] | 1.16 ± 0.064
40 | SAGGSAATVEVTRLPGGRYVVRLRNPDTDEEIVVELPVDASTTPEDVLEAARALVAELEEEGYTIESAGGSA [r15_1022_TrMRF] | 3.135 ± 0.024
41 | SLKNGDPIMVKIEIEQYNPKNGKPQEQKHSIMIPPGDPVTINIPGLPPGYKVRVEIYPMDGKPIGEHTIPSA [r9_478_TrROS] | 1.14 ± 0.047
42 | SAGGSGPSAPRTLTLDLPELPPGVKITVTVDFPGGRTFTGGVTERTATVDLPVPDGLEVESVTVQLESAGGS [r16_179_JUSTAS] | 0.00426 ± 0.16
43 | SAGGWIPPGAEIEIDEIGPDGTITVKIKYPDGKPMSITMRRQRDKDGKRYIELYFPGSGRPIASFPIKSAGG [r13_527_TrROS] | 1.57 ± 0.08
44 | SAMPIDITVEGVERPPDSVVVHLRLDPSVPSDLAVTVKVRGADGTVLEVPAEDRTATLRVPSSDVVVDLSAG [r14_350_JUSTAS] | 0.912 ± 0.24
45 | SAGGSAGGSSPVRTLTIPTENLTPEEILELVKNNPVDSVVLNADSEEEEKLKEELKKAGIKVLSAGGSAGGS [r12_610_JUSTAS] | 0.138 ± 0.15
46 | SAGGSAGGDPRPVRVEVLRLEYDPPSGLLRALVRNPENDLLVFATLRIFPDPAGAELRVESVVFSAGGSAGG [r6_70_TrMRF] | 2.85 ± 0.1
